One molecule from EP4596582A1 can be followed below.

By EC50 is commonly meant the concentration that produces a half-maximal response.

The target of assay [1] is human B7-H3-4Ig-His protein (human) (UniProt Q5ZPR3). Kind of assay: ELISA, antigen coated at 1 ug/ml. In general terms: An ELISA detects its analyte on a solid surface through an enzyme-linked reagent.
For assay [2], the target named is monkey B7-H3-4Ig-His protein (monkey). Kind of assay: ELISA, antigen coated at 1 ug/ml.
Assay [3] addresses human B7-H3-4Ig-His protein (human) (UniProt Q5ZPR3). Briefly: ELISA, antigen coated at 1 ug/ml (specificity panel).
For assay [4] the target is unchanged. Briefly: ELISA, antigen coated at 1 ug/ml. This is another data set of the same source.
Assay [5] addresses human B7-H3-4Ig on CHO-S cells (CHO-S-human B7-H3-4Ig) (human) (UniProt Q5ZPR3). Briefly: cell-based or functional assay.
Assay [6] has as its target human B7-H3 on human tumor cells (MCF-7, HT29, NCI-N87, HCC1806, HCC827) (human) (UniProt Q5ZPR3). Kind of assay: cell-based or functional assay.

Sequence of human B7-H3 on human tumor cells (MCF-7, HT29, NCI-N87, HCC1806, HCC827) (human) (Q5ZPR3 29-534): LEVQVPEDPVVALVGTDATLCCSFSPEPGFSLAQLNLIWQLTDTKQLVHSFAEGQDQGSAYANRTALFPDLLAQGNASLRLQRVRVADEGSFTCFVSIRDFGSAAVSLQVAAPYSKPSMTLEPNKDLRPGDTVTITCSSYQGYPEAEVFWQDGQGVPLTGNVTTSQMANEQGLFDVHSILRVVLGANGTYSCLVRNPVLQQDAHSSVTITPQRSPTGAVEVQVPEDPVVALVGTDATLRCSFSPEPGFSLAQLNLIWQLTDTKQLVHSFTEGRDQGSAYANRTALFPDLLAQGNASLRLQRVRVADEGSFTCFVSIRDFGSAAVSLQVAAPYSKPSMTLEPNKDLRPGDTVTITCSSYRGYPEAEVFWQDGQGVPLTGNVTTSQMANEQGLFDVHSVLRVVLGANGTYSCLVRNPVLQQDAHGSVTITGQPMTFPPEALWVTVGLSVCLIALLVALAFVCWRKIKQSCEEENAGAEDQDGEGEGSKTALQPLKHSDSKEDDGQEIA
Sequence of human B7-H3-4Ig-His protein (human) (Q5ZPR3 other isoform, or with tags, fused parts or gaps): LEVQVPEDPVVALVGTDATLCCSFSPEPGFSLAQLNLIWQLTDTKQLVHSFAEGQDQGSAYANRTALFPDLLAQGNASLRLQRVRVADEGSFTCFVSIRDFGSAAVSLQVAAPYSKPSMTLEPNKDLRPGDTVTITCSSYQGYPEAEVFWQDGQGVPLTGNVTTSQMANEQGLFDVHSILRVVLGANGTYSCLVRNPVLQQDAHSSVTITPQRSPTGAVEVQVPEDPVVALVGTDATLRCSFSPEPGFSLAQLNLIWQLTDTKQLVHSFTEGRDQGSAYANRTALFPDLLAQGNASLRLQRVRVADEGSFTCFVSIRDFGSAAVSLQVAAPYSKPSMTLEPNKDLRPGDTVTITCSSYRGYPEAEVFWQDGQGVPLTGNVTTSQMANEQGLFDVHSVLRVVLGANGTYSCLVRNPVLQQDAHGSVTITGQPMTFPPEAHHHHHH
Sequence of human B7-H3-4Ig on CHO-S cells (CHO-S-human B7-H3-4Ig) (human) (Q5ZPR3 29-534): as the sequence (Q5ZPR3 29-534) above

B1: control B7-H3 antibody DS7300 (antibody, INN chains, looked up, V domains shown)
VH: QVQLVQSGAEVKKPGSSVKVSCKASGYTFTNYVMHWVRQAPGQGLEWMGYINPYNDDVKYNEKFKGRVTITADESTSTAYMELSSLRSEDTAVYYCARWGYYGSPLYYFDYWGQGTLVTVSS
VL: EIVLTQSPATLSLSPGERATLSCRASSRLIYMHWYQQKPGQAPRPLIYATSNLASGIPARFSGSGSGTDFTLTISSLEPEDFAVYYCQQWNSNPPTFGQGTKVEIK
Regarding B1, the EC50 in assay [1] amounted to 0.0138 µg/mL; in assay [2] it was 0.0237 µg/mL; in assay [3] it was 0.00336 µg/mL; in assay [4], 0.00336 µg/mL. Moreover, the ADCC: EC50 of luciferase signal of Jurkat-NFAT/Luciferase-CD16A effector cells with CHO-S-human B7-H3-4Ig target cells in assay [5] was 0.108 µg/mL. The molecule also gave an Endocytosis EC50 on HCC827 cells (PHrodo, flow cytometry) in assay [6] of 0.0152 µg/mL. In assay [6], this molecule yielded an Endocytosis EC50 on HCC1806 cells (PHrodo, flow cytometry) of 0.0572 µg/mL. Moreover, in assay [6], the Endocytosis EC50 on NCI-N87 cells (PHrodo, flow cytometry) amounted to 0.0241 µg/mL.
